Here are results for one molecule from patent publication US20050228169A1 (published 2005).

The target in the assay is T1, GST-syntaxin-1a (1-266AA) (human, UniProt P08515 1-218 = GST; Q16623 1-266).
T1 construct: Expressed in E. coli DH5a and purified on glutathione-Sepharose; also called GST-syntaxin-1a fused protein; syntaxin-1a-GST
The assay can be described thus: GST pull-down: GST-syntaxin-1a (17 µg) on glutathione-Sepharose, 16 hours at 4° C.; Western blot with anti-penta His antibody. As for the experimental part: KIAA1006 polypeptide (the histidine-tagged KIAA1006 polypeptide described above) and its C-terminal truncated product (the histidine-tagged C-terminal truncation product of KIAA1006 polypeptide described above) purified with a cobalt resin were respectively mixed with glutathione-Sepharose (bed volume 10 μl) to which GST (17 μg) was bound, stirred for 6 hours at 4° C., and then centrifuged. The obtained supernatants (GST-glutathione-Sepharose unadsorbed fractions) were respectively added to glutathione-Sepharose (bed volume 10 μl) to which GST-syntaxin-1a (17 μg) was bound, and after stirring for 16 hours at 4° C., the resultants were subjected to centrifugation. The fractions adsorbed to GST-glutathione-Sepharose and the fractions adsorbed to GST-syntaxin-1a-glutathione-Sepharose were eluted with SDS-PAGE sample buffer, respectively, and the binding of syntaxin-1a to KIAA1006 polypeptide or to its C-terminal truncation product was analyzed by Western blotting using anti-penta His antibody (Qiagen).
For the SDS-PAGE, 4-12% Bis-Tris Gel (NOVEX) was used. The detection of a secondary antibody that was labeled with horseradish peroxidase was carried out using ECL Western blotting detection reagents (Amersham Pharmacia Biotech).
In general terms: Immunoblotting shows a protein as a band on a membrane.

T1 sequence (P08515 1-218, tags or fused parts left off): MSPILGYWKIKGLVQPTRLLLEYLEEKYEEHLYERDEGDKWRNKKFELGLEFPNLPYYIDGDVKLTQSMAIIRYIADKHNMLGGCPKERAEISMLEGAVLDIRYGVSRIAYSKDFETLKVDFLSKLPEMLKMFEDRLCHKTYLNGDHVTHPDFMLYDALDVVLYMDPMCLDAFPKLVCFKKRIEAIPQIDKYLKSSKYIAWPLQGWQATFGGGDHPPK

B1: histidine-tagged KIAA1006 C-terminal truncated polypeptide (1-1157AA) (other)
chain: HHHHHHMKKFNFRKVLDGLTASSPGSGSSSGSNSGGGAGSGSVHPAGTAGVLREEIQETLTSEYFQICKTVRHGFPHQPTALAFDPVQKILAIGTRTGAIRILGRPGVDCYCQHESGAAVLQLQFLINEGALVSASSDDTLHLWNLRQKRPAILHSLKFNRERITYCHLPFQSKWLYVGTERGNTHIVNIESFILSGYVIMWNKAIELSTKTHPGPVVHLSDSPRDEGKLLIGYENGTVVFWDLKSKRAELRVYYDEAIHSIDWHHEGKQFMCSHSDGSLTLWNLKSPSRPFQTTIPHGKSQREGRKSESCKPILKVEYKTCKNSEPFIIFSGGLSYDKACRRPSLTIMHGKAITVLEMDHPIVEFLTLCETPYPNEFQEPYAVVVLLEKDLIVVDLTQSNFPIFENPYPMDIHESPVTCTAYFADCPPDLILVLYSIGVKHKKQGYSNKEWPISGGAWNLGAQTYPEIIITGHADGSIKFWDASAITLQMLYKLKTSKVFEKQKVGEGKQTCEIVEEDPFAIQMIYWCPESRIFCVSGVSAYVIIYKFSRHEITTEIVSLEVRLQYDVEDIITPEPETSPPFPDLSAQLPSSRSLSGSTNTVASEGVTKDSIPCLNVKTRPVRMPPGYQAELVIQLVWVDGEPPQQITSLAVSSAYGIVAFGNCNGLAVVDFIQKTVLLSMGTIDLYRSSDLYQRQPRSPRKNKQFIADNFCMRGLSNFYPDLTKRIRTSYQSLTELNDSPVPLELERCKSPTSDHVNGHCTSPTSQSCSSGKRLSSADVSKVNRWGPGRPPFRKAQSAACMEISLPVTTEENRENSYNRSRSSSISSIDKDSKEAITALYFMDSFARKNDSTISPCLFVGTSLGMVLIISLNLPLADEQRFTEPVMVLPSGTFLSLKGAVLTFSCMDRMGGLMQPPYEVWRDPNNIDENEKSWRRKVVMNSSSASQEIGDHQYTIICSEKQAKVFSLPSQTCLYVHNITETSFILQANVVVMCSSACLACFCANGHIMIMSLPSLRPMLDVNYLPLTDMRIARTFCFTNEGQALYLVSPTEIQRLTYSQEMCDNLQDMLGDLFTPIETPEAQNRGFLKGLFGGSGQTFDREELFGEASAGKASRSLAQHIPGPGSIEGMKGAAGGVMGELTRARIALDERGQRLGELEEKT
notes: Expressed in sf9 insect cells by baculovirus and purified on cobalt resin; The junction of the tag is as noted for m1; also called C-terminal truncated product; C-terminal truncation product of KIAA1006 polypeptide
Regarding B1, the binding result was “no binding”.
